Test results published in the Immune Epitope Database (IEDB).
pKd: −log10 of the molar value.

Tests used:
Experiment in all cases: IEDB peptide-MHC binding, purified MHC/competitive/fluorescence; filed as Kd, often an IC50 or EC50 that approximates it; ≥ and ≤ were set here for values at or beyond the usual limits of such assays
Conditions in all cases: source organism: Entamoeba histolytica HM-1:IMSS
[1] = target: HLA-B*15:17
[2] = target: HLA-B*51:01
[3] = target: HLA-B*27:05
[4] = target: HLA-B*27:03
[5] = target: HLA-A*30:02
[6] = target: HLA-B*44:02
[7] = target: HLA-A*02:11
[8] = target: HLA-B*58:01

EVRKAIEFV
pKd [1]: ≤ 4.70 | pKd [2]: ≤ 4.70 | pKd [3]: ≤ 5.30 | pKd [4]: ≤ 4.70 | pKd [5]: ≤ 5.30 | pKd [6]: ≤ 5.30 | pKd [7]: ≤ 4.70 | pKd [8]: ≤ 5.30
